Test results from the nanobody polyreactivity screen of Harvey et al. (2022).

Assay: yeast display, Sf9 membrane polyspecificity reagent, FACS + sequencing; frameworks hold sequencing errors
In short: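 After 36–48 hours of galactose induction, yeast (Saccharomyces cerevisiae BJ5465) displaying a synthetic nanobody library were stained at 4 °C for 1 hour with 10% biotinylated, detergent-solubilized Sf9 membrane reagent. Streptavidin microbeads enriched the stained cells before FACS sorting into low and high (top ~1%) gates on anti-HA and streptavidin fluorescence. Each clone's polyreactivity label reflects its gate of origin.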

Sequence | polyreactivity (PSR sort gate)
QVQLVESGGGLVQAGGSLRLSCAASGRIFATNAMGWYREAPGKERELVATITRSAGRTYYADSVKGRFTISRDNAKNSVYLQMNSLKPEDTAVYYCAASYWDTEPGYREYDYWGQGTQVTVSS | low polyreactivity
QVQLVESGGGLVQAGGSLRLICAASGGTFYINTMGWYRQAPGKERELVATITIVVSTKYADSVKGRFTISRDNAKNTVYLQMNSLKPEDTAVYYCAKDDVYRDSYLVFDGEMDYWGQGTQVTVSS | low polyreactivity
QVQLVESGGGLVQAGGSLLLSCAASGFTFTVYAMGWYILAPGKERELVAAISWNGGSTYYADSVKGRFTISRDNAKNTVYLQMNSLKPEDTAVYYCNTLQPYLYDYWGQGTQVTVSS | high polyreactivity
QVQLVESGGGLVQAGGSLRLSCPASGSIIYTNDMGWYRQEPGKEREMVAAISYGGTTTYADSVKGRFTISRDNAKNTVYLQMNSLKPEDTAVYYCNADWLYYGYWGYGHIWYDFWGQGTQVTVSS | low polyreactivity
QVQLVESGGGLVQAGGSLRLSCAASGIIFYDNAMGWYRQAPGKERALVAALTWTGSSTYYADSVKGRFTISRDNAKNTVYLQMNSLKPEDTAVSYCNARASYGHQGRLGYARLYYWGQGTQVTVSS | high polyreactivity
QVQLVESGGGLVQAGGSLRLSCAASGYIFPTYAMGWYRQEPGKERELVAAISISGGDTYYADSVKGRFTISRDNAKNTVYLQMNSLKPEDTAVYYCAAVKYETYRYNYDYWGQGTQVTVSS | high polyreactivity
QVQLVESGGGLVQAGGSLRLSCAASGFTFPYYSMGWYRQAPGTERELVAPISYNGGSTYYADSVMGRFTISRDNAKNTVYLQMNSRNPEDTAVYYCNAVYSDSGVVGYYYWGQGTQVTVSS | high polyreactivity
QVQLVESGGGLVQAGGSLRLSCAASGLTFIVYAMAWYRQAPGKERELVADITWSGGSTYYADSVKGRFTISRDNAKNTVYLQMNSLKPEDTAVYYCNRQSAKIMDYWGQGTQVTVSS | low polyreactivity
QVQLVESGGGLVQAGGSLRLTCAASGYIFYRYALGWYRKAPGKERELVAAINSGGSTYYADSVKGRFTISRDNAKNTVYLQMNSLKPEDTAVYYCNVLGWWHVWVYDYWGQGTQVTVSS | high polyreactivity
QVQLVESGGGLVQAGGSLRLSCAASGIIFVWNAMGWYRQAPGKERALVAAITNGGSTYYADSVKGRFTISRDNAKTTVYLQMTSLKPEETAVDYCHVRYFFRFRDDYWGQGTQVTVSS | low polyreactivity
QVQLVESGGGIVQAGGSLRLSCAASGYTFGTYAMGWYRQAPGKERELVAAITSTGGRTYYADSVKGRFTISRDNAKNTVYLQMNSLKPEDTAVYYCAAERVYRTIWHYPYYYWGQGTQVTVSS | high polyreactivity
QVQLVESGGGLVQAGGSLRLSCAASGFTFGRNAMGWYRQAPGKERELVAAISRGGSTYYADSVKGRFTISRDNAKNTVYLQMISLKPEDTAVYYCAAETFLKPQYFKKFGYWGQGTQVTVSS | high polyreactivity
QVQLVESGVCLVQAGRSLPLSCAASGFTFDSNAMGWSRQAPGNESELVAAISASRDSTYYADSVKGRFTISRDNAKNTVYLQMNSLKPEETAVYYCAADSSDWPYDYWGQCTQVTVSS | low polyreactivity
QVQLVESGGGLVQAGGSLRLSCAASGYDMGWYRQAPGKERELVAAISRGGSTSYADSVKGRFTISRENAKNTVYLQMNSLKPEDTAVYYCAARYGSYRVGYDYWGQGTQVTVSS | low polyreactivity
QVQLVESGGGLVQAGGSLRLSCAASGITFRKYAMGWYRPAPGKERELVAAISSGGSRTYYADSVKGRFTISRDNAKNTVYLQMNSLKPEDTAVYYCAARKADTVFKFEYWGQGTQVTVSS | high polyreactivity
QVQLVESGGGLVQAGGSLRLSCAASGSTFVRYSMGWYRQAPGKERDLVAAITSSGGSTYYADSVKGRFTISRDNAKNSVYFQMNSLKPEDTAVYDFAAARYPYRYIYNYWGQGTQVTVSS | high polyreactivity
